Measured values taken from article PMC11637481, “A third dose of inactivated vaccine augments the potency, breadth, and duration of anamnestic responses against SARS-CoV-2” (Protein & Cell, 2024).

Target: T1, SARS-CoV-2 receptor-binding domain (RBD), wild type (SARS-CoV-2, wild type (GenBank MN908947), UniProt P0DTC2)
T1 construct: also called WT
Assay: BLI
Settings: both partners purified

Binder	Kd
XGv016 (antibody, V domains shown) VH: QVQLVQSGTEVRKPGASVTVSCKASGYTFTTYHMHWVRRAPGQGLEWMGIIDPGTGGASYPQKFRGRVTLTRDTSTNTVYMELSSLRFQDTAIYYCARAEGSSWLGWFDPWGQGTLVTVSS VL: QSVLTQPPSASGTPGQRVSISCSGSSSNIGTNYVYWYQQLPGTAPKLLIYKNNQRPSGVPDRFSGSKSGTSASLAISGLRSEDEADYFCASWDNGLSGSGWVFGGGTKLTV	160 pM
XGv018 (antibody, V domains shown) VH: QVQLVESGGGVVQPGRSLRLSCAASGFTFSTYGMHWVRQAPGKGLEWVAVILNDGSGKLYADSVKGRFTISRDNSKNTLYLQMSSLRAEDTAVYFCARDQGELVTYFDYWGQGTLVTVSS VL: DIQMTQSPSSLSASVGDRVTITCRASQSISRYLNWYQHKPGKAPKLLIYTTSNLQSGVPSRFSGSGSGTDFTLTISSLHPEDFATYYCQQSYNTPSWTFGQGTKVEIK	210 pM
XGv026 (antibody, V domains shown) VH: EVQLVESGGGVIQPGGSLRLSCAASEIIVSSNYMNWVRQAPGKGLEWVSVIYPGGSSFYADSVKGRFTISRDNSKNTLYLQMNSLRVEDTAVYYCARDSPHRPGTIWGQGTLVVVSS VL: DIQMTQSPSSLSASVGDRVTITCRASQDINNYLNWYQQKPGKAPKLLIYDAFTLEAGVPSRFSGARFGTDFTFTISSLQPEDIATYYCHQCDNLPCTFGGGTKVEIK	230 pM
XGv030 (antibody, V domains shown) VH: EVQLVESGGGLVQPGGSLRLSCAASGFSFSTYSLNWVRQAPGKGLEWVSYISSSSITIYYAHSVKGRFTISRDDAKNSLYLQVNNLRDEDTAVYYCARVLGFSDYVWGSYQRGLYGMDVWGQGTTVSVSS VL: QSALTQPASVSGSPGQSIAISCTGTSSDVGGYDFVSWYQQHPGKAPKLLIYDVTNRPSGISNRFSGSKSGNTASLTISGLQTEDEADYYCSSFTSSNTLPFVFGTGTTVTVL	1300 pM
XGv038 (antibody, V domains shown) VH: QVQLVESGGGVVQPGRSLRLSCAASGFTFNNYGIHWVRQAPGKGLEWVAVIWYDGTNKYYADSVKGRFTISRDNSKNTVYLQMNSLRAEDTAVYYCARDYEITMAAPDYWGQGTLVTVSS VL: DVVMTQSPLSLPVTLEQPASISCRSSQSLVSSDGNTYLNWFQQRPGQSPRRLIYKVSNRDSGVPDRFSGSGSGTDFTLKINRVEAEDVGIYYCMQGSHWPPTFGGGTKVEIK	430 pM
XGv042 (antibody, V domains shown) VH: QITLKESGPTLVKPTQTLTLTCTFSGLSMTTSGVGVGWIRQPPGKALEWLALIYWDDDKRYSPFLKSRLTITKDTSKNQVVLTMTNMDPADTGTYFCAHHTIPSIFDHWGQGTLVTVSS VL: QSALTQPASVSGSPGQSITISCTATSSDVGVYNYVSWYQQYPGKAPRLIIFEVSNRPSGVSSRFSGSKSGYTASLTISGLQTDDEADYYCSSYTTTSTVFGGGTKLTVL	160 pM
XGv013 (antibody, V domains shown) VH: EVQLVESGGGLVQPGGSLRLSCAASGITVSSNYMTWVRQAPGKGLEWVSVIYAGGSTFYADSVKGRFTISRDNSKNTLYLQMNSLRVEDTAVYYCARDLVDYGMDVWGQGTTVTVSS VL: DIQLTQSPSFLSASVGDRVTITCRASQGIASYLAWYQQKPGKAPKLLIYAASTLQSGVPTRFSGSGSGTEFTLTIRSLQPEDSATYYCQHPSGHPPTFGGGTKVEI	260 pM
